Several values for one entry are separate records, joined by “and”; a condition that tells them apart may be missing. Identical values can stand only once.
How the values were obtained:
[1] = molecular target: Inactivated influenza B virus Hong Kong 5/72 (Influenza B virus Hong Kong 5/72); assay: lateral-flow sandwich, M2110171 line + 2/3-Eu, 0.0164 HA units
[2] = molecular target: Inactivated influenza B virus Hong Kong 5/72 (Influenza B virus Hong Kong 5/72); assay: lateral-flow sandwich, M2110171 line + 2/3-Eu, 0.016 HA units/test, against 0 HA
[3] = molecular target: Inactivated influenza B virus Hong Kong 5/72 (Influenza B virus Hong Kong 5/72); assay: lateral-flow sandwich, M2110171 line + 2/3-gold, 0.082 HA/test
[4] = molecular target: Inactivated influenza B virus Hong Kong 5/72 (Influenza B virus Hong Kong 5/72); assay: lateral-flow sandwich, M2110171 line + 2/3-Eu, 0.032 HA units/test, against 0 HA
[5] = molecular target: Inactivated influenza B virus Hong Kong 5/72 (Influenza B virus Hong Kong 5/72); assay: lateral-flow sandwich, M2110171 line + 2/3-Eu, 0.0328 HA units
[6] = molecular target: Inactivated influenza B virus Hong Kong 5/72 (Influenza B virus Hong Kong 5/72); assay: lateral-flow sandwich, M2110171 line + 2/3-Eu, 0.004 HA units/test
[7] = molecular target: Inactivated influenza B virus Hong Kong 5/72 (Influenza B virus Hong Kong 5/72); assay: lateral-flow sandwich, M2110171 line + 2/3-Eu, 0.004 HA units/test, against 0 HA
[8] = molecular target: Inactivated influenza B virus Hong Kong 5/72 (Influenza B virus Hong Kong 5/72); assay: lateral-flow sandwich, M2110171 line + 2/3-Eu, 0.0082 HA units
[9] = molecular target: Inactivated influenza B virus Hong Kong 5/72 (Influenza B virus Hong Kong 5/72); assay: lateral-flow sandwich, M2110171 line + 2/3-gold, 0.021 HA/test
[10] = molecular target: Inactivated influenza B virus Hong Kong 5/72 (Influenza B virus Hong Kong 5/72); assay: lateral-flow sandwich, M2110171 line + 2/3-Eu, 0.032 HA units/test
[11] = molecular target: Inactivated influenza B virus Hong Kong 5/72 (Influenza B virus Hong Kong 5/72); assay: lateral-flow sandwich, B line: M2110171 striped + 2/3-Eu
[12] = molecular target: Inactivated influenza B virus Hong Kong 5/72 (Influenza B virus Hong Kong 5/72); assay: lateral-flow sandwich, M2110171 line + 2/3-Eu, 0.002 HA units/test, against 0 HA
[13] = molecular target: Inactivated influenza B virus Hong Kong 5/72 (Influenza B virus Hong Kong 5/72); assay: lateral-flow sandwich, M2110171 line + 2/3-gold, 0.041 HA/test
[14] = molecular target: Inactivated influenza B virus Hong Kong 5/72 (Influenza B virus Hong Kong 5/72); assay: lateral-flow sandwich, M2110171 line + 2/3-Eu, 0.0123 HA units
[15] = molecular target: Inactivated influenza B virus Hong Kong 5/72 (Influenza B virus Hong Kong 5/72); assay: lateral-flow sandwich, M2110171 line + 2/3-Eu, 0.002 HA units/test
[16] = molecular target: Inactivated influenza B virus Hong Kong 5/72 (Influenza B virus Hong Kong 5/72); assay: lateral-flow sandwich, M2110171 line + 2/3-Eu, 0.0021 HA units
[17] = molecular target: Inactivated influenza B virus Hong Kong 5/72 (Influenza B virus Hong Kong 5/72); assay: lateral-flow sandwich, M2110171 line + 2/3-Eu, 0.0041 HA units
[18] = molecular target: Inactivated influenza B virus Hong Kong 5/72 (Influenza B virus Hong Kong 5/72); assay: lateral-flow sandwich, M2110171 line + 2/3-Eu, 0.008 HA units/test
[19] = molecular target: Inactivated influenza B virus Hong Kong 5/72 (Influenza B virus Hong Kong 5/72); assay: lateral-flow sandwich, M2110171 line + 2/3-Eu, 0.008 HA units/test, against 0 HA
[20] = molecular target: Inactivated influenza B virus Hong Kong 5/72 (Influenza B virus Hong Kong 5/72); assay: lateral-flow sandwich, M2110171 line + 2/3-gold, 0.164 HA/test
[21] = molecular target: Inactivated influenza B virus Hong Kong 5/72 (Influenza B virus Hong Kong 5/72); assay: lateral-flow sandwich, M2110171 line + 2/3-Eu, 0.016 HA units/test
[22] = molecular target: Inactivated influenza B virus Hong Kong 5/72 (Influenza B virus Hong Kong 5/72); assay: lateral-flow sandwich, 9901 line + 2/3-Eu, 0.0021 HA units
[23] = molecular target: Inactivated influenza B virus Hong Kong 5/72 (Influenza B virus Hong Kong 5/72); assay: lateral-flow sandwich, 9901 line + 2/3-Eu, 0.0082 HA units
[24] = molecular target: Inactivated influenza B virus Hong Kong 5/72 (Influenza B virus Hong Kong 5/72); assay: lateral-flow sandwich, 9901 line + 2/3-Eu, 0.0164 HA units
[25] = molecular target: Inactivated influenza B virus Hong Kong 5/72 (Influenza B virus Hong Kong 5/72)
[26] = molecular target: Inactivated influenza B virus Hong Kong 5/72 (Influenza B virus Hong Kong 5/72); assay: lateral-flow sandwich, 9901 line + 2/3-Eu, 0.0041 HA units
[27] = molecular target: Inactivated influenza B virus Hong Kong 5/72 (Influenza B virus Hong Kong 5/72); assay: lateral-flow sandwich, 9901 line + 2/3-Eu, 0.0123 HA units
[28] = molecular target: Inactivated influenza B virus Hong Kong 5/72 (Influenza B virus Hong Kong 5/72); assay: lateral-flow sandwich, 9901 line + 2/3-Eu, 0.0328 HA units
[29] = molecular target: Inactivated influenza A virus Texas 1/77 (H3N2) (Influenza A virus Texas 1/77 (H3N2)); assay: lateral-flow sandwich, 7304 line + M4090913-gold, 1.64 HA/test
[30] = molecular target: Inactivated influenza A virus Texas 1/77 (H3N2) (Influenza A virus Texas 1/77 (H3N2)); assay: lateral-flow sandwich, 7304 line + M4090913-Eu, 0.02 HA units/test, against 0 HA
[31] = molecular target: Inactivated influenza A virus Texas 1/77 (H3N2) (Influenza A virus Texas 1/77 (H3N2)); assay: lateral-flow sandwich, 7304 line + M4090913-Eu, 0.1 HA units/test
[32] = molecular target: Inactivated influenza A virus Texas 1/77 (H3N2) (Influenza A virus Texas 1/77 (H3N2)); assay: lateral-flow sandwich, 7304 line + M4090913-Eu, 0.02 HA units/test
[33] = molecular target: Inactivated influenza B virus Hong Kong 5/72 (Influenza B virus Hong Kong 5/72); assay: lateral-flow sandwich, A line: 7304 striped + M4090913-Eu
[34] = molecular target: Inactivated influenza A virus Texas 1/77 (H3N2) (Influenza A virus Texas 1/77 (H3N2)); assay: lateral-flow sandwich, 7304 line + M4090913-Eu, 0.021 HA unit
[35] = molecular target: Inactivated influenza A virus Texas 1/77 (H3N2) (Influenza A virus Texas 1/77 (H3N2)); assay: lateral-flow sandwich, 7304 line + M4090913-gold, 0.21 HA/test
[36] = molecular target: Inactivated influenza A virus Texas 1/77 (H3N2) (Influenza A virus Texas 1/77 (H3N2)); assay: lateral-flow sandwich, 7304 line + M4090913-Eu, 1 HA unit/test
[37] = molecular target: Inactivated influenza A virus Texas 1/77 (H3N2) (Influenza A virus Texas 1/77 (H3N2)); assay: lateral-flow sandwich, 7304 line + M4090913-Eu, 0.164 HA units
[38] = molecular target: Inactivated influenza A virus Texas 1/77 (H3N2) (Influenza A virus Texas 1/77 (H3N2)); assay: lateral-flow sandwich, 7304 line + M4090913-Eu, 0.04 HA units/test
[39] = molecular target: Inactivated influenza A virus Texas 1/77 (H3N2) (Influenza A virus Texas 1/77 (H3N2)); assay: lateral-flow sandwich, 7304 line + M4090913-Eu, 0.123 HA units
[40] = molecular target: Inactivated influenza A virus Texas 1/77 (H3N2) (Influenza A virus Texas 1/77 (H3N2)); assay: lateral-flow sandwich, 7304 line + M4090913-Eu, 0.021 HA units
[41] = molecular target: Inactivated influenza A virus Texas 1/77 (H3N2) (Influenza A virus Texas 1/77 (H3N2)); assay: lateral-flow sandwich, 7304 line + M4090913-Eu, 0.328 HA units
[42] = molecular target: Inactivated influenza A virus Texas 1/77 (H3N2) (Influenza A virus Texas 1/77 (H3N2)); assay: lateral-flow sandwich, 7304 line + M4090913-gold, 0.105 HA/test
[43] = molecular target: Inactivated influenza A virus Texas 1/77 (H3N2) (Influenza A virus Texas 1/77 (H3N2)); assay: lateral-flow sandwich, 7304 line + M4090913-Eu, 0.082 HA units
[44] = molecular target: Inactivated influenza A virus Texas 1/77 (H3N2) (Influenza A virus Texas 1/77 (H3N2)); assay: lateral-flow sandwich, 7304 line + M4090913-Eu, 0.1 HA units/test, against 0 HA
[45] = molecular target: Inactivated influenza A virus Texas 1/77 (H3N2) (Influenza A virus Texas 1/77 (H3N2)); assay: lateral-flow sandwich, 7304 line + M4090913-Eu, 1 HA unit/test, against 0 HA
[46] = molecular target: Inactivated influenza A virus Texas 1/77 (H3N2) (Influenza A virus Texas 1/77 (H3N2)); assay: lateral-flow sandwich, 7304 line + M4090913-Eu, 0.04 HA units/test, against 0 HA
[47] = molecular target: Inactivated influenza A virus Texas 1/77 (H3N2) (Influenza A virus Texas 1/77 (H3N2)); assay: lateral-flow sandwich, 7304 line + M4090913-Eu, 0.01 HA units/test, against 0 HA
[48] = molecular target: Inactivated influenza A virus Texas 1/77 (H3N2) (Influenza A virus Texas 1/77 (H3N2)); assay: lateral-flow sandwich, 7304 line + M4090913-Eu, 0.041 HA units
[49] = molecular target: Inactivated influenza A virus Texas 1/77 (H3N2) (Influenza A virus Texas 1/77 (H3N2)); assay: lateral-flow sandwich, 7304 line + M4090913-gold, 0.41 HA/test
[50] = molecular target: Inactivated influenza A virus Texas 1/77 (H3N2) (Influenza A virus Texas 1/77 (H3N2)); assay: lateral-flow sandwich, 7304 line + M4090913-Eu, 0.01 HA units/test
[51] = molecular target: Inactivated influenza A virus Texas 1/77 (H3N2) (Influenza A virus Texas 1/77 (H3N2)); assay: lateral-flow sandwich, 7304 line + M4090913-gold, 0.82 HA/test

**Q.** What does the source list for “Anti-Flu B nucleoprotein M2110171 (Fitzgerald) (antibody)”?
**A.** fluorescence intensity (AVG) [1]: 7130; signal/noise [2]: 19.8; Peak Intensity [3]: 7.3 and 8.2; Peak Intensity(avg) [3]: 7.76; signal/noise [4]: 47.6; fluorescence intensity (AVG) [5]: 12800; Net peak height [6]: 884 and 896; Net peak height (AVG) [6]: 890; signal/noise [7]: 6; fluorescence intensity (AVG) [8]: 3590; Peak Intensity [9]: 2.8 and 2.7; Peak Intensity(avg) [9]: 2.78; Net peak height [10]: 7200 and 6970; Net peak height (AVG) [10]: 7090; Signal/noise of test line [11]: 437; signal/noise [12]: 3.5; Peak Intensity [13]: 4.8 and 4.6; Peak Intensity(avg) [13]: 4.67; fluorescence intensity (AVG) [14]: 6550; Net peak height [15]: 496 and 539; Net peak height (AVG) [15]: 517; fluorescence intensity (AVG) [16]: 1380; fluorescence intensity (AVG) [17]: 2670; Net peak height [18]: 1630 and 1700; Net peak height (AVG) [18]: 1670; signal/noise [19]: 11.2; Peak Intensity [20]: 14.4 and 13.3; Peak Intensity(avg) [20]: 13.8; Net peak height [21]: 3330 and 2570; Net peak height (AVG) [21]: 2950

**Q.** With anti-Flu B Medix 9901 antibody as the substance, how does the fluorescence intensity (AVG) [22] read?
**A.** 1490

**Q.** And the fluorescence intensity (AVG) [23]?
**A.** 2480

**Q.** What about the fluorescence intensity (AVG) [24] of the same substance?
**A.** 5440

**Q.** What about the S/N ratio [25] of the same substance?
**A.** 4.96

**Q.** What about the fluorescence intensity (AVG) [26] of the same substance?
**A.** 1580

**Q.** And the fluorescence intensity (AVG) [27]?
**A.** 2710

**Q.** What about the fluorescence intensity (AVG) [28] of the same substance?
**A.** 9990

**Q.** What does the source list for anti-Flu A Medix 7304 antibody?
**A.** Peak Intensity [29]: 26.4 and 22.5; Peak Intensity(avg) [29]: 24.5; S/N [30]: 1.8; fluorescence signal [31]: 2550 and 2400; fluorescence signal (AVG) [31]: 2470; fluorescence signal [32]: 936 and 1040; fluorescence signal (AVG) [32]: 987; Signal/noise of test line [33]: 4.8; Signal/noise (S/N) ratio [34]: 2.03; Peak Intensity [35]: 4.8 and 8.6; Peak Intensity(avg) [35]: 6.7; fluorescence signal [36]: 21100 and 20000; fluorescence signal (AVG) [36]: 20500; fluorescence intensity (AVG) [37]: 4080; fluorescence signal [38]: 1420 and 1440; fluorescence signal (AVG) [38]: 1430; fluorescence intensity (AVG) [39]: 3730; fluorescence intensity (AVG) [40]: 1270; fluorescence intensity (AVG) [41]: 8690; Peak Intensity [42]: 2.2 and 3.3; Peak Intensity(avg) [42]: 2.8; fluorescence intensity (AVG) [43]: 2280; S/N [44]: 4.5; S/N [45]: 37.4; S/N [46]: 2.6; S/N [47]: 1.4; fluorescence intensity (AVG) [48]: 1600; Peak Intensity [49]: 13.2 and 9.1; Peak Intensity(avg) [49]: 11.2; fluorescence signal [50]: 794 and 776; fluorescence signal (AVG) [50]: 785; Peak Intensity [51]: 14.8 and 13.5; Peak Intensity(avg) [51]: 14.1
